Measurements: patent US11293031B2

System: CN1CCC[C@H]1c1cccnc1
Experiment: cells, lysate or membranes named
Settings: other: nicotine demethylase reaction, yeast microsomes, 25° C., pH 7.1, mean±standard error

## NtabCYP82E5v2 (Nicotiana tabacum)
  Km: 5.6 ± 1.4 µM
  Vmax: 0.7±0.02 nmol min^−1 mg^−1 protein
